# Results from patent publication US20170081400A1 (CEPHALON, published 2017).
# Numbering of substitutions follows the chain as printed.
# T1: human TL1A extracellular domain with N-terminal HIS and FLAG tag (human, UniProt O95150 72-251)
# T1 construct: the whole entry is named
# T1 sequence: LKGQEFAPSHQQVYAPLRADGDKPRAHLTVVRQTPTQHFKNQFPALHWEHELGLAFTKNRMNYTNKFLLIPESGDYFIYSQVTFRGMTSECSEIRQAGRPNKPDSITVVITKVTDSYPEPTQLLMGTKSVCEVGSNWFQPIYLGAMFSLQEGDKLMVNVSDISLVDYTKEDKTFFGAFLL
# T2: human TL1A extracellular domain with N-terminal HIS and FLAG tag (human) (UniProt O95150)
# T2 sequence: T1 sequence
# B1: 320-313 (antibody, human IgG1, name in Kabat numbering, V domains shown)
# VH: QVQLVQSGAEVKKPGASVKVSCKASGYTFTSYDINWVRQAPGQGLEWMGWLNPNSGNTGYAQKFQGRVTMTADRSTSTAYMELSSLRSEDTAVYYCAREVPETAAFEYWGQGTLVTVSS
# VL: QSVLTQPPSVSGAPGQRVTISCTSSSSDIGAGLGVHWYQQLPGTAPKLLIEGYYNRPSGVPDRFSGSKSGTSASLTITGLLPEDEGDYYCHSYDGTLSALFGGGTKLTVLG
# notes: human IgG1, lambda
# B2: 320-358 (antibody, human IgG1, name in Kabat numbering, V domains shown)
# VH: B1 VH
# VL: B1 VL with H91Q, L97A
# notes: human IgG1, lambda
# B3: 320-328 (antibody, human IgG1, name in Kabat numbering, V domains shown)
# VH: B1 VH
# VL: B1 VL with H91Q, Y93H
# notes: human IgG1, lambda
# B4: 320-369 (antibody, human IgG1, name in Kabat numbering, V domains shown)
# VH: B1 VH
# VL: B1 VL with H91Q, S98L
# notes: human IgG1, lambda
# B5: 320-345 (antibody, human IgG1, name in Kabat numbering, V domains shown)
# VH: B1 VH
# VL: B1 VL with H91Q, G95K
# notes: human IgG1, lambda
# B6: 320-368 (antibody, human IgG1, name in Kabat numbering, V domains shown)
# VH: B1 VH
# VL: B1 VL with H91Q, S98K
# notes: human IgG1, lambda
# B7: 320-326 (antibody, human IgG1, name in Kabat numbering, V domains shown)
# VH: B1 VH
# VL: B1 VL with H91Q, Y93S
# notes: human IgG1, lambda
# B8: 320-314 (antibody, human IgG1, name in Kabat numbering, V domains shown)
# VH: B1 VH
# VL: B1 VL with H91K
# notes: human IgG1, lambda
# B9: 320-367 (antibody, human IgG1, name in Kabat numbering, V domains shown)
# VH: B1 VH
# VL: B1 VL with H91Q, S98H
# notes: human IgG1, lambda
# B10: 320-357 (antibody, human IgG1, name in Kabat numbering, V domains shown)
# VH: B1 VH
# VL: B1 VL with H91Q, T96Y
# notes: human IgG1, lambda
# B11: 320-366 (antibody, human IgG1, name in Kabat numbering, V domains shown)
# VH: B1 VH
# VL: B1 VL with H91Q, S98D
# notes: human IgG1, lambda
# B12: 320-365 (antibody, human IgG1, name in Kabat numbering, V domains shown)
# VH: B1 VH
# VL: B1 VL with H91Q, S98Q
# notes: human IgG1, lambda
# B13: 320-356 (antibody, human IgG1, name in Kabat numbering, V domains shown)
# VH: B1 VH
# VL: B1 VL with H91Q, T96W
# notes: human IgG1, lambda
# B14: 320-343 (antibody, human IgG1, name in Kabat numbering, V domains shown)
# VH: B1 VH
# VL: B1 VL with H91Q, G95D
# notes: human IgG1, lambda
# B15: 320-360 (antibody, human IgG1, name in Kabat numbering, V domains shown)
# VH: B1 VH
# VL: B1 VL with H91Q, L97Q
# notes: human IgG1, lambda
# B16: 320-353 (antibody, human IgG1, name in Kabat numbering, V domains shown)
# VH: B1 VH
# VL: B1 VL with H91Q, T96H
# notes: human IgG1, lambda
# B17: 320-371 (antibody, human IgG1, name in Kabat numbering, V domains shown)
# VH: B1 VH
# VL: B1 VL with H91Q, S98Y
# notes: human IgG1, lambda
# B18: 320-342 (antibody, human IgG1, name in Kabat numbering, V domains shown)
# VH: B1 VH
# VL: B1 VL with H91Q, G95Q
# notes: human IgG1, lambda
# B19: 320-364 (antibody, human IgG1, name in Kabat numbering, V domains shown)
# VH: B1 VH
# VL: B1 VL with H91Q, S98A
# notes: human IgG1, lambda
# B20: 320-370 (antibody, human IgG1, name in Kabat numbering, V domains shown)
# VH: B1 VH
# VL: B1 VL with H91Q, S98W
# notes: human IgG1, lambda
# B21: 320-344 (antibody, human IgG1, name in Kabat numbering, V domains shown)
# VH: B1 VH
# VL: B1 VL with H91Q, G95H
# notes: human IgG1, lambda
# B22: 320-350 (antibody, human IgG1, name in Kabat numbering, V domains shown)
# VH: B1 VH
# VL: B1 VL with H91Q, T96S
# notes: human IgG1, lambda
# B23: 320-359 (antibody, human IgG1, name in Kabat numbering, V domains shown)
# VH: B1 VH
# VL: B1 VL with H91Q, L97S
# notes: human IgG1, lambda
# B24: 320-354 (antibody, human IgG1, name in Kabat numbering, V domains shown)
# VH: B1 VH
# VL: B1 VL with H91Q, T96K
# notes: human IgG1, lambda
# B25: 320-318 (antibody, human IgG1, name in Kabat numbering, V domains shown)
# VH: B1 VH
# VL: B1 VL with H91Q, S92A
# notes: human IgG1, lambda
# B26: 320-351 (antibody, human IgG1, name in Kabat numbering, V domains shown)
# VH: B1 VH
# VL: B1 VL with H91Q, T96Q
# notes: human IgG1, lambda
# B27: 320-352 (antibody, human IgG1, name in Kabat numbering, V domains shown)
# VH: B1 VH
# VL: B1 VL with H91Q, T96D
# notes: human IgG1, lambda
# B28: 320-355 (antibody, human IgG1, name in Kabat numbering, V domains shown)
# VH: B1 VH
# VL: B1 VL with H91Q, T96L
# notes: human IgG1, lambda
# B29: 320-346 (antibody, human IgG1, name in Kabat numbering, V domains shown)
# VH: B1 VH
# VL: B1 VL with H91Q, G95L
# notes: human IgG1, lambda
# B30: 320-349 (antibody, human IgG1, name in Kabat numbering, V domains shown)
# VH: B1 VH
# VL: B1 VL with H91Q, T96A
# notes: human IgG1, lambda
# B31: 320-347 (antibody, human IgG1, name in Kabat numbering, V domains shown)
# VH: B1 VH
# VL: B1 VL with H91Q, G95W
# notes: human IgG1, lambda
# B32: 320-348 (antibody, human IgG1, name in Kabat numbering, V domains shown)
# VH: B1 VH
# VL: B1 VL with H91Q, G95Y
# notes: human IgG1, lambda
# Molecular target: T1, human TL1A extracellular domain with …
# Test: SPR Run 4, purified Ab captured on Protein A, TL1A 5 ug/mL, timepoint 44
# Text: (§1) 1.5. Antibody expression and antigen binding as determined by SPR. Using a CM5 sensor chip (GE Healthcare) Protein A (Pierce) was coupled to the chip surface using an amine coupling kit (GE Healthcare). Protein A was coupled on flow cell 1 and 2 (or alternatively 3 and 4) using a BIACORE® T200. […] The amount of supernatant or purified protein (as well as the concentration) injected during the capture stage varied between runs and is specified in the header of the Tables 3-11. At the end of injection of the supernatant or purified antibody the change in response units was measured. This value was reported as Capture Level in Tables 3-11. […] The response units were measured prior to the end of the dissociation phase. […] The sensorgrams were double referenced (flow cell 2 is subtracted from flow cell 1 and a buffer blank). As there were a large number of antibody variants to screen, these were screened across different runs (Tables 3-11). […] A summary of the conditions used in each run is below:
# (§2) 2.1. […] In some experiment the antibodies were purified using Protein A chromatography (See 1.4) and purified antibodies were used in BIACORE® (GE Healthcare) experiments.
row,TL1A Binding Level (Early) [RU],Binder
1,141,B1
2,82,B2
3,155,B3
4,89,B4
5,163,B5
6,50,B6
7,126,B7
8,165,B8
9,119,B9
10,119,B10
11,62,B11
12,141,B12
13,109,B13
14,121,B14
15,86,B15
16,97,B16

row,TL1A Binding Level (Early) [RU],Binder
1,92,B17
2,152,B18
3,124,B19
4,66,B20
5,117,B21
6,130,B22
7,57,B23
8,53,B24
9,160,B25
10,112,B26
11,101,B27
12,102,B28
13,126,B29
14,112,B30
15,149,B31
16,144,B32

# Molecular target: T2, human TL1A extracellular domain with N-terminal HIS and FLAG tag (human)
# Test: cell-based or functional assay
"Antibody IC50, TL1A induced caspase potency assay in TF-1 cells [µg/mL]","Fold improvement over 320-179, TL1A induced caspase potency assay in TF-1 cells [fold]",Binder
0.02,2,B1
0.02,1,B3
0.02,1,B5
0.03,2,B7
0.02,2,B8
0.02,3,B25

# Molecular target: T1, human TL1A extracellular domain with …
# Test: SPR Run 4, purified Ab captured on Protein A, TL1A 5 ug/mL, timepoint 220
# Text: as §1, §2
row,TL1A Binding Level (Late) [RU],Binder
1,132,B1
2,50,B2
3,146,B3
4,60,B4
5,154,B5
6,26,B6
7,120,B7
8,158,B8
9,116,B9
10,91,B10
11,31,B11
12,128,B12
13,86,B13
14,90,B14
15,53,B15
16,73,B16

row,TL1A Binding Level (Late) [RU],Binder
1,70,B17
2,139,B18
3,109,B19
4,39,B20
5,87,B21
6,118,B22
7,27,B23
8,30,B24
9,149,B25
10,83,B26
11,63,B27
12,76,B28
13,107,B29
14,88,B30
15,130,B31
16,127,B32
